Data on 39 sequences can be found in the supplement of paper PMC7877785.

± gives the uncertainty stated by the source.

The data set can be described thus: self-splicing fitness, log relative to wild type (ln ratio); higher = more splicing; Tetrahymena group I intron in knt gene, E. coli kanamycin selection, DiMSum; sequences stand for … in CUCUCU…GGAGGGAAAAGUUAUCAGGCAUGCACCUGGUAGCUAGUCUUUAAACCAAUAGAUUGCAUCGGUUUAAAAGGCAAGACCGUCAAAUUGCGGGAAAGGGGUCAACAGCCGUUCAGUACCAAGUCUCAGGGGAAACUUUGAGAUGGCCUUGCAAAGGGUAUGGUAAUAAGCUGACGGACAUGGUCCUAACCACGCAGCCAAGUCCUAAGUCAACAGAUCUUCUGUUGAUAUGGAUGCAGUUCACAGACUAAAUGUCGGUCGGGGAAGAUGUAUUCUUCUCAUAAGAUAUAGUCGGACCUCUCCUUAAUGGGAGCUAGCGGAUGAAGUGAUGCAACACUGGAGCCGCUGGGAACUAAUUUGUAUGCGAAAGUAUAUUGAUUAGUUUUGGAGUACUCGUGGUCG
The procedure, abridged:
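Colonies from six replicate transformations of E. coli BL21(DE3) were pooled and amplicon-sequenced on an Illumina HiSeq 2500. The library placed an intron with all eight P1ex-region nucleotides randomised inside the knt kanamycin-resistance gene on pET-22b(+), and cells grew overnight at 37°C or 30°C on LB agar with or without 25 μg/mL kanamycin (plus 100 μg/mL carbenicillin, 50 μM IPTG, 0.2% rhamnose). Fitness is the DiMSum error-weighted combination of wild-type-normalised replicate fold changes, kanamycin versus none.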

With CCCGAGCAAUAUUACGAAUU, the “self-splicing fitness (ln)” value (37 °C) was -2.44 ± 0.35.

For the sequence CCCGAGCAAUAUUACGACCU, the “self-splicing fitness (ln)” value runs as follows: (30 °C) -2.45 ± 0.31; (37 °C) -2.19 ± 0.32.

Consider CCCGAGCAAUAUUACGAGGC, for which the “self-splicing fitness (ln)” value is -2.89 ± 0.28 (30 °C) and -2.47 ± 0.27 (37 °C).

In the case of CCCGAGCAAUAUUACGAGUU, the “self-splicing fitness (ln)” value is -4.2 ± 0.19 (30 °C) and -2.29 ± 0.17 (37 °C).

As to CCCGAGCAAUAUUACGAUAG, the “self-splicing fitness (ln)” value is -3.17 ± 0.22 (30 °C) and -2.02 ± 0.2 (37 °C).

Regarding CCCGAGCAAUAUUACGAUAU, the “self-splicing fitness (ln)” value is, setting by setting: (30 °C) -4.76 ± 0.45; (37 °C) -2.2 ± 0.22.

On to CCCGAGCAAUAUUACGCCUA, for which the “self-splicing fitness (ln)” value by setting is: (30 °C) -1.85 ± 0.25; (37 °C) -2.94 ± 0.35.

In the case of CCCGAGCAAUAUUACGCCUU, the “self-splicing fitness (ln)” value reads like this: (30 °C) -2.99 ± 0.2; (37 °C) -1.56 ± 0.34.

Consider CCCGAGCAAUAUUACGCGUC, for which the “self-splicing fitness (ln)” value is -5.24 ± 0.32 (30 °C) and -2.91 ± 0.23 (37 °C).

Take CCCGAGCAAUAUUACGCUAU: the “self-splicing fitness (ln)” value is, setting by setting: (30 °C) -4.39 ± 0.34; (37 °C) -2.49 ± 0.2.

With CCCGAGCAAUAUUACGCUCG, the “self-splicing fitness (ln)” value runs as follows: (30 °C) -3.62 ± 0.22; (37 °C) -2.92 ± 0.27.

Turning to CCCGAGCAAUAUUACGGAUA, the “self-splicing fitness (ln)” value reads like this: (30 °C) -3.04 ± 0.22; (37 °C) -2.89 ± 0.27.

As for CCCGAGCAAUAUUACGGAUC, the “self-splicing fitness (ln)” value reads like this: (30 °C) -3.92 ± 0.46; (37 °C) -2.06 ± 0.27.

Consider CCCGAGCAAUAUUACGGCCU, for which the “self-splicing fitness (ln)” value (30 °C) is -2.93 ± 0.33.

For the sequence CCCGAGCAAUAUUACGGGCG, the “self-splicing fitness (ln)” value was -3.03 ± 0.19 (30 °C) and -2.47 ± 0.25 (37 °C).

In the case of CCCGAGCAAUAUUACGGGCU, the “self-splicing fitness (ln)” value reads like this: (30 °C) -3.98 ± 0.26; (37 °C) -2.65 ± 0.21.

Take CCCGAGCAAUAUUACGGGGU: the “self-splicing fitness (ln)” value was -2.92 ± 0.16 (30 °C) and -2.93 ± 0.17 (37 °C).

On to CCCGAGCAAUAUUACGGUAC, for which the “self-splicing fitness (ln)” value was -4.04 ± 0.22 (30 °C) and -2.85 ± 0.21 (37 °C).

As for CCCGAGCAAUAUUACGGUGG, the “self-splicing fitness (ln)” value reads like this: (30 °C) -3.06 ± 0.13; (37 °C) -3.2 ± 0.18.

With CCCGAGCAAUAUUACGUCCU, the “self-splicing fitness (ln)” value (30 °C) was -3.97 ± 0.39 and the “self-splicing fitness (ln)” value (37 °C) was -2.75 ± 0.39.

Turning to CCCGAGCAAUAUUACGUGCG, the “self-splicing fitness (ln)” value by setting is: (30 °C) -4.04 ± 0.21; (37 °C) -2.82 ± 0.21.

CCCGAGCAAUAUUACGUUCU: the “self-splicing fitness (ln)” value is, setting by setting: (30 °C) -3.61 ± 0.25; (37 °C) -2.1 ± 0.25.

Take CCCUAGCAAUAUUACGAAAA: the “self-splicing fitness (ln)” value runs as follows: (30 °C) -2.83 ± 0.2; (37 °C) -3.22 ± 0.27.

Turning to CCCUAGCAAUAUUACGAAAU, the “self-splicing fitness (ln)” value runs as follows: (30 °C) -2.88 ± 0.21; (37 °C) -2.59 ± 0.31.

Turning to CCCUAGCAAUAUUACGAAGU, the “self-splicing fitness (ln)” value by setting is: (30 °C) -4.34 ± 0.28; (37 °C) -2.89 ± 0.27.

As for CCCUAGCAAUAUUACGACCG, the “self-splicing fitness (ln)” value runs as follows: (30 °C) -1.21 ± 0.2; (37 °C) -2.17 ± 0.34.

As to CCCUAGCAAUAUUACGACGA, the “self-splicing fitness (ln)” value is -3.12 ± 0.24 (30 °C) and -2.61 ± 0.27 (37 °C).

For the sequence CCCUAGCAAUAUUACGAGGC, the “self-splicing fitness (ln)” value was -4.41 ± 0.42 (30 °C) and -4.06 ± 0.18 (37 °C).

Regarding CCCUAGCAAUAUUACGAGUA, the “self-splicing fitness (ln)” value is -3.32 ± 0.29 (30 °C) and -2.72 ± 0.33 (37 °C).

CCCUAGCAAUAUUACGAUUU: the “self-splicing fitness (ln)” value is -3.35 ± 0.17 (30 °C) and -1.91 ± 0.17 (37 °C).

In the case of CCCUAGCAAUAUUACGCGAU, the “self-splicing fitness (ln)” value by setting is: (30 °C) -3.74 ± 0.18; (37 °C) -2.77 ± 0.2.

Regarding CCCUAGCAAUAUUACGCGCU, the “self-splicing fitness (ln)” value (37 °C) was -1.78 ± 0.47.

For CCCUAGCAAUAUUACGCUAU, for the setting “30 °C”, the “self-splicing fitness (ln)” value is -3.92 ± 0.43.

With CCCUAGCAAUAUUACGCUUU, the “self-splicing fitness (ln)” value was -4.12 ± 0.22 (30 °C) and -2.49 ± 0.18 (37 °C).

As for CCCUAGCAAUAUUACGGGUG, the “self-splicing fitness (ln)” value was -2.51 ± 0.11 (30 °C) and -0.894 ± 0.089 (37 °C).

As to CCCUAGCAAUAUUACGGUUA, the “self-splicing fitness (ln)” value is, setting by setting: (30 °C) -4.05 ± 0.35; (37 °C) -2.71 ± 0.21.

In the case of CCCUAGCAAUAUUACGUACC, the “self-splicing fitness (ln)” value was -1.72 ± 0.18 (30 °C) and -1.05 ± 0.3 (37 °C).

Regarding CCCUAGCAAUAUUACGUAUC, under “37 °C”, the “self-splicing fitness (ln)” value is -3.37 ± 0.39.

For the sequence CCCUAGCAAUAUUACGUCAU, the “self-splicing fitness (ln)” value is -2.27 ± 0.13 (30 °C) and -3.11 ± 0.24 (37 °C).
